A word on the Kd: it is the equilibrium constant for the complex coming apart. The low end stands for a tighter complex, the high end for a looser complex.

Changes are numbered by the printed parent chain. Names may count otherwise.

Sequences and labels used below:
B1: mAb114 WT IgG (antibody, V domains shown)
VH: EVQLVESGGGLIQPGGSLRLSCAASGFALRMYDMHWVRQTIDKRLEWVSAVGPSGDTYYADSVKGRFAVSRENAKNSLSLQMNSLTAGDTAIYYCVRSDRGVAGLFDSWGQGILVTVSS
VL: DIQMTQSPSSLSASVGDRITITCRASQAFDNYVAWYQQRPGKVPKLLISAASALHAGVPSRFSGSGSGTHFTLTISSLQPEDVATYYCQNYNSAPLTFGGGTKVEIK
B2: mAb114 UCA VH P60A-G61D / VL V43A IgG (antibody, V domains shown)
VH: EVQLVESGGGLVQPGGSLRLSCAASGFTFSSYDMHWVRQATGKGLEWVSAIGTAGDTYYADSVKGRFTISRENAKNSLYLQMNSLRAGDTAVYYCVRSDRGVAGLFDSWGQGTLVTVSS
VL: DIQMTQSPSSLSASVGDRVTITCRASQGISNYLAWYQQKPGKAPKLLIYAASTLQSGVPSRFSGSGSGTDFTLTISSLQPEDVATYYCQKYNSAPLTFGGGTKVEIK
B3: mAb114 VH I41P-D42G-A68T-S79Y-I113T / VL V43A Fab (Fab, V domains shown)
VH: B1 VH with I41P, D42G, A68T, S79Y, I113T
VL: B1 VL with V43A
B4: mAb114 VL F29I Fab (Fab, V domains shown)
VH: B1 VH
VL: B1 VL with F29I
B5: mAb114 VH A68T-I113T / VL V43A Fab (Fab, V domains shown)
VH: B1 VH with A68T, I113T
VL: B1 VL with V43A
B6: mAb114 VH I113T Fab (Fab, V domains shown)
VH: B1 VH with I113T
VL: B1 VL
B7: mAb114 VH I41P-D42G-A68T-S79Y-I113T Fab (Fab, V domains shown)
VH: B1 VH with I41P, D42G, A68T, S79Y, I113T
VL: B1 VL
B8: mAb114 VH D42G-A68T-S79Y Fab (Fab, V domains shown)
VH: B1 VH with D42G, A68T, S79Y
VL: B1 VL
B9: mAb114 VH M31S Fab (Fab, V domains shown)
VH: B1 VH with M31S
VL: B1 VL
B10: mAb114 VH S79Y Fab (Fab, V domains shown)
VH: B1 VH with S79Y
VL: B1 VL
B11: mAb114 VL S49Y Fab (Fab, V domains shown)
VH: B1 VH
VL: B1 VL with S49Y
B12: mAb114 VH A68T Fab (Fab, V domains shown)
VH: B1 VH with A68T
VL: B1 VL
B13: mAb114 VL H70D Fab (Fab, V domains shown)
VH: B1 VH
VL: B1 VL with H70D
B14: mAb114 VL V43A Fab (Fab, V domains shown)
VH: B1 VH
VL: B1 VL with V43A
B15: mAb114 VH D42G Fab (Fab, V domains shown)
VH: B1 VH with D42G
VL: B1 VL
B16: mAb114 VH I41P Fab (Fab, V domains shown)
VH: B1 VH with I41P
VL: B1 VL
B17: mAb114 VH A68T-E72D-S79Y-I113T / VL V43A Fab (Fab, V domains shown)
VH: B1 VH with A68T, E72D, S79Y, I113T
VL: B1 VL with V43A
B18: mAb114 VL N90Q Fab (Fab, V domains shown)
VH: B1 VH
VL: B1 VL with N90Q
B19: mAb114 VL I19V Fab (Fab, V domains shown)
VH: B1 VH
VL: B1 VL with I19V
B20: mAb114 VH E72D Fab (Fab, V domains shown)
VH: B1 VH with E72D
VL: B1 VL
B21: mAb114 UCA VL K90Q IgG (antibody, V domains shown)
VH: B2 VH with A60P, D61G
VL: B2 VL with A43V, K90Q
B22: mAb114 UCA VH T41P-P60A-G61D-E72D-G88E-V96A IgG (antibody, V domains shown)
VH: B2 VH with T41P, E72D, G88E, V96A
VL: B2 VL with A43V
B23: mAb114 UCA VH G61D IgG (antibody, V domains shown)
VH: B2 VH with A60P
VL: B2 VL with A43V
B24: mAb114 UCA VL V43A IgG (antibody, V domains shown)
VH: B2 VH with A60P, D61G
VL: B2 VL
B25: mAb114 UCA VH V96A IgG (antibody, V domains shown)
VH: B2 VH with A60P, D61G, V96A
VL: B2 VL with A43V
B26: mAb114 UCA VH A54G IgG (antibody, V domains shown)
VH: B2 VH with A54G, A60P, D61G
VL: B2 VL with A43V
B27: mAb114 UCA VH P60A-G61D / VL V43A Fab (Fab, V domains shown)
VH: B2 VH
VL: B2 VL
B28: mAb114 UCA VH G88E IgG (antibody, V domains shown)
VH: B2 VH with A60P, D61G, G88E
VL: B2 VL with A43V
B29: mAb114 UCA VH V96A / VL V43A IgG (antibody, V domains shown)
VH: B2 VH with A60P, D61G, V96A
VL: B2 VL
B30: mAb114 UCA VH T41P IgG (antibody, V domains shown)
VH: B2 VH with T41P, A60P, D61G
VL: B2 VL with A43V
B31: mAb114 UCA VH T41P-P60A-G61D-E72D-G88E-V96A / VL V43A IgG (antibody, V domains shown)
VH: B2 VH with T41P, E72D, G88E, V96A
VL: B2 VL
B32: mAb114 UCA VH E72D IgG (antibody, V domains shown)
VH: B2 VH with A60P, D61G, E72D
VL: B2 VL with A43V
B33: mAb114 UCA VH P60A IgG (antibody, V domains shown)
VH: B2 VH with D61G
VL: B2 VL with A43V
B34: mAb114 UCA VH G88E / VL V43A IgG (antibody, V domains shown)
VH: B2 VH with A60P, D61G, G88E
VL: B2 VL
B35: mAb114 UCA VH P60A-G61D IgG (antibody, V domains shown)
VH: B2 VH
VL: B2 VL with A43V
B36: mAb114 UCA VH P60A-G61D-G88E-V96A / VL V43A IgG (antibody, V domains shown)
VH: B2 VH with G88E, V96A
VL: B2 VL

The target of the first assay is T1, Ebola GP ectodomain (Mayinga, Zaire, 1976) with the mucin-like domain deleted (Zaire ebolavirus (Mayinga, 1976), UniProt Q05320 33-650).
With B1, the Kd is under 0.001 nM.
Turning to B2, the “fold improvement in Kd over wildtype” value amounted to 90 fold.

The next assay deals with T1, Ebola GP ectodomain (Mayinga, Zaire, …). This is another data set of the same source.
The molecule B3 came in with a Kd of 0.069 nM.
Still for that read-out and setting: in the case of B4 it was 0.5 nM; in that of B5, 0.17 nM.
The same measure, in the same setting: in the case of B6 it was 0.07 nM.
Still for that read-out and setting: the figure for B7 is 0.19 nM.
On to B8, for which binding was characterised by a dissociation constant (Kd) of 0.19 nM.
Still for that read-out and setting: the figure for B9 is 0.1 nM; for B10 it is 0.1 nM; for B11 it is 0.6 nM.
Still for that read-out and setting: in the case of B12 it was 0.1 nM.
B13: the affinity, expressed as Kd, was 0.3 nM.
On the same count and under the same terms, the figure for B14 is 0.07 nM; for B15 it is 0.2 nM.
On the same count and under the same terms, in the case of B16 it was 0.3 nM; in that of B17, 0.076 nM.
Same read-out and setting: the figure for B18 is 4 nM.
With B19, the dissociation constant Kd is 0.2 nM.
Same read-out and setting: the figure for B20 is 0.1 nM.

The target is the same in the next assay. This is another data set of the same source.
Regarding B2, binding was characterised by a dissociation constant (Kd) of 5 nM.
On the same count and under the same terms, in the case of B21 it was 620 nM; in that of B22, 33 nM.
Take B23: the Kd was 100 nM.
Same read-out and setting: in the case of B24 it was 60 nM.
Take B25: the Kd came to 110 nM.
On the same count and under the same terms, in the case of B26 it was 80000 nM.
The same measure, in the same setting: the figure for B27 is 480 nM; for B28 it is 150 nM; for B29 it is 22 nM.
The same measure, in the same setting: the figure for B30 is 100 nM.
Take B31: binding was characterised by a dissociation constant (Kd) of 15 nM.
Same read-out and setting: the figure for B32 is 200 nM; for B33 it is 40000 nM.
Still for that read-out and setting: the figure for B34 is 13 nM; for B35 it is 120 nM; for B36 it is 13 nM.

Values taken from patent US20250243261A1 (CZ BIOHUB SF, published 2025).
